B1: Fis1 (human Fis1 residues 1-125, with the N-terminal arm) (domain or fragment)
chain: MEAVLNELVSVEDLLKFEKKFQSEKAAGSVSKSTQFEYAWCLVRSKYNDDIRKGIVLLEELLPKGSKEEQRDYVFYLAVGNYRLKEYEKALKYVRGLLQTEPQNNQAKELERLIDKAMKKDGLVG
B2: Fis1 E7A (human Fis1 residues 1-125 with E7A) (domain or fragment)
chain: B1 chain with E7A
B3: Cy5-labelled Fis1ΔN (residues 9-125) (domain or fragment)
chain: VSVEDLLKFEKKFQSEKAAGSVSKSTQFEYAWCLVRSKYNDDIRKGIVLLEELLPKGSKEEQRDYVFYLAVGNYRLKEYEKALKYVRGLLQTEPQNNQAKELERLIDKAMKKDGLVG
B4: Fis1ΔN (human Fis1 residues 9-125, lacking the N-terminal arm) (domain or fragment)
chain: B3 chain

Assay [1] has as its target B4. In words: NMR titration.
Assay [2] addresses Cy5-labelled Drp1 (isoform 1) (human, UniProt O00429 1-736). In words: MST.
Assay [3] addresses T1, Dynamin-related protein 1 (Drp1) isoform 1, unlabelled (human, UniProt O00429 1-736). In words: MST.
The target in assay [4] is T1, Dynamin-related protein 1 (Drp1) …. In words: NMR titration.

Changes are numbered by the printed parent chain. Names and notes keep the numbering of the source.

A word on the Kd: it is the equilibrium constant for the complex coming apart. A low value points to a tighter complex.

Cy5-labelled Drp1 (isoform 1), sequence (O00429 whole entry, canonical isoform): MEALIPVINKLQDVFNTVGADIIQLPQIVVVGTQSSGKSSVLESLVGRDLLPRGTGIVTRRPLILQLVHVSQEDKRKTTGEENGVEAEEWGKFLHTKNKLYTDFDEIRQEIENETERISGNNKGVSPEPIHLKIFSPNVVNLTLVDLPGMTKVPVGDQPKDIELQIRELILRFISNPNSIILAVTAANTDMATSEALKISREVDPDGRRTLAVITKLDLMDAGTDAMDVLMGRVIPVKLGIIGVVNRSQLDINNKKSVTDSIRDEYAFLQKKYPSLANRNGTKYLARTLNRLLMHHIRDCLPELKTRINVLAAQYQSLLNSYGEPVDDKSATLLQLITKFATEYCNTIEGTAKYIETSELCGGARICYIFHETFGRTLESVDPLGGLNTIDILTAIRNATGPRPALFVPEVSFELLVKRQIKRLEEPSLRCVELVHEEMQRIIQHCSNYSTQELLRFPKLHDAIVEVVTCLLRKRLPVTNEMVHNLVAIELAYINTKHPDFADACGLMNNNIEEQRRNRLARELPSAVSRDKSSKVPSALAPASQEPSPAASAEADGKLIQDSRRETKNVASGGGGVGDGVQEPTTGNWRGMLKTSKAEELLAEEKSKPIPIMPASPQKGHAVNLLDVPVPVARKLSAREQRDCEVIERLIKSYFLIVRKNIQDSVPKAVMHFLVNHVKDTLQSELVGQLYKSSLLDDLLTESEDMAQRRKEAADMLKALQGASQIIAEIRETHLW
T1 sequence (O00429 whole entry, canonical isoform): as above

Ac-MEAVLNEL-NH2 [Fis1 N-terminal arm peptide] showed a Kd in assay [1] of at least 5000 µM.

B1 registered a Kd in assay [2] of 13 ± 3 µM.

Consider B2, for which the Kd in assay [2] was found to be 7 ± 1 µM.

Consider B3, for which the Kd in assay [3] is 15 µM.

As to B4, the Kd in assay [4] is 26 to 68 µM.

Source of the values: article PMC10694664 (The Journal of Biological Chemistry, 2023).
